Results reported in patent US20060257938A1, “Method of screening for drugs that block ligand binding to a lipid binding protein” (priority 2005, published 2006).

How the values were obtained:
Assay type in all cases: binding
[1] = Probe fluorescence ratio response to linoleic acid relative to ADIFAB2; details: response relative to ADIFAB2
Summary of the method: (§1)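 Each fatty acid's response was expressed relative to ADIFAB2, the rI-FABP-L72A probe, as ΔR/ΔRreference. ΔR is the change in the background-corrected two-wavelength intensity ratio R=Fλ1/Fλ2 from its analyte-free baseline R0. Emission was read near about 420-480 nm for unbound and about 495-580 nm for FFA-bound probe.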

[2] = Probe fluorescence ratio response to oleic acid relative to ADIFAB2; details: response relative to ADIFAB2
Summary of the method: as §1

[3] = Probe fluorescence ratio response to linolenic acid relative to ADIFAB2; details: response relative to ADIFAB2
Summary of the method: as §1

[4] = Probe fluorescence ratio response to arachidonic acid relative to ADIFAB2; details: arachidonic acid; response relative to ADIFAB2
Summary of the method: as §1

[5] = Probe fluorescence ratio response to palmitic acid relative to ADIFAB2; details: response relative to ADIFAB2
Summary of the method: as §1

Molecule | DR/DR LA [1] | DR/DR OA [2] | DR/DR LNA [3] | DR/DR AA [4] | DR/DR PA [5]
91C, 72A (protein, listed as Rattus norvegicus, PEPTIDE (1)...(131) wild-type rat intestinal fatty acid binding protein) AFDGTWKVDRNENYEKFMEKMGINVVKRKLGAHDNLKLTITQEGNKFTVKESSNFRNIDVVFELGVDFAYSAADGTELTGTWTMEGNKLVCKFKRVDNGKELIAVREISGNELIQTYTYEGVEAKRIFKKE | 1.371 | 1.470 | 1.420 | 1.201 | 0.794
106I, 72A (protein, listed as Rattus norvegicus, PEPTIDE (1)...(131) wild-type rat intestinal fatty acid binding protein) AFDGTWKVDRNENYEKFMEKMGINVVKRKLGAHDNLKLTITQEGNKFTVKESSNFRNIDVVFELGVDFAYSAADGTELTGTWTMEGNKLVGKFKRVDNGKELIAVIEISGNELIQTYTYEGVEAKRIFKKE | 0.563 | 0.661 | 0.624 | 0.481 | 0.223
106H, 72A (protein, listed as Rattus norvegicus, PEPTIDE (1)...(131) wild-type rat intestinal fatty acid binding protein) AFDGTWKVDRNENYEKFMEKMGINVVKRKLGAHDNLKLTITQEGNKFTVKESSNFRNIDVVFELGVDFAYSAADGTELTGTWTMEGNKLVGKFKRVDNGKELIAVHEISGNELIQTYTYEGVEAKRIFKKE | 0.669 | 0.732 | 0.633 | 0.636 | 0.258
14I 38I 72V (protein, listed as Rattus norvegicus, PEPTIDE (1)...(131) wild-type rat intestinal fatty acid binding protein) AFDGTWKVDRNENIEKFMEKMGINVVKRKLGAHDNLKITITQEGNKFTVKESSNFRNIDVVFELGVDFAYSVADGTELTGTWTMEGNKLVGKFKRVDNGKELIAVREISGNELIQTYTYEGVEAKRIFKKE | 0.862 | 0.398 | 0.926 | 0.715 | 0.844
106V, 72A (protein, listed as Rattus norvegicus, PEPTIDE (1)...(131) wild-type rat intestinal fatty acid binding protein) AFDGTWKVDRNENYEKFMEKMGINVVKRKLGAHDNLKLTITQEGNKFTVKESSNFRNIDVVFELGVDFAYSAADGTELTGTWTMEGNKLVGKFKRVDNGKELIAVVEISGNELIQTYTYEGVEAKRIFKKE | 0.574 | 0.657 | 0.592 | 0.398 | 0.191
14L 72A (protein, listed as Rattus norvegicus, PEPTIDE (1)...(131) wild-type rat intestinal fatty acid binding protein) AFDGTWKVDRNENLEKFMEKMGINVVKRKLGAHDNLKLTITQEGNKFTVKESSNFRNIDVVFELGVDFAYSAADGTELTGTWTMEGNKLVGKFKRVDNGKELIAVREISGNELIQTYTYEGVEAKRIFKKE | 0.766 | 0.446 | 0.867 | 0.838 | 0.534
106L, 72A (protein, listed as Rattus norvegicus, PEPTIDE (1)...(131) wild-type rat intestinal fatty acid binding protein) AFDGTWKVDRNENYEKFMEKMGINVVKRKLGAHDNLKLTITQEGNKFTVKESSNFRNIDVVFELGVDFAYSAADGTELTGTWTMEGNKLVGKFKRVDNGKELIAVLEISGNELIQTYTYEGVEAKRIFKKE | 0.382 | 0.431 | 0.364 | 0.383 | 0.183
38H, 72A (protein, listed as Rattus norvegicus, PEPTIDE (1)...(131) wild-type rat intestinal fatty acid binding protein) AFDGTWKVDRNENYEKFMEKMGINVVKRKLGAHDNLKHTITQEGNKFTVKESSNFRNIDVVFELGVDFAYSAADGTELTGTWTMEGNKLVGKFKRVDNGKELIAVREISGNELIQTYTYEGVEAKRIFKKE | 0.905 | 0.955 | 0.864 | 0.998 | 0.624
106A, 72A (protein, listed as Rattus norvegicus, PEPTIDE (1)...(131) wild-type rat intestinal fatty acid binding protein) AFDGTWKVDRNENYEKFMEKMGINVVKRKLGAHDNLKLTITQEGNKFTVKESSNFRNIDVVFELGVDFAYSAADGTELTGTWTMEGNKLVGKFKRVDNGKELIAVAEISGNELIQTYTYEGVEAKRIFKKE | 0.515 | 0.596 | 0.518 | 0.389 | 0.164
106S, 72A (protein, listed as Rattus norvegicus, PEPTIDE (1)...(131) wild-type rat intestinal fatty acid binding protein) AFDGTWKVDRNENYEKFMEKMGINVVKRKLGAHDNLKLTITQEGNKFTVKESSNFRNIDVVFELGVDFAYSAADGTELTGTWTMEGNKLVGKFKRVDNGKELIAVSEISGNELIQTYTYEGVEAKRIFKKE | 0.355 | 0.478 | 0.403 | 0.321 | 0.149
106N, 72A (protein, listed as Rattus norvegicus, PEPTIDE (1)...(131) wild-type rat intestinal fatty acid binding protein) AFDGTWKVDRNENYEKFMEKMGINVVKRKLGAHDNLKLTITQEGNKFTVKESSNFRNIDVVFELGVDFAYSAADGTELTGTWTMEGNKLVGKFKRVDNGKELIAVNEISGNELIQTYTYEGVEAKRIFKKE | 0.451 | 0.496 | 0.445 | 0.384 | 0.152
106T, 72A (protein, listed as Rattus norvegicus, PEPTIDE (1)...(131) wild-type rat intestinal fatty acid binding protein) AFDGTWKVDRNENYEKFMEKMGINVVKRKLGAHDNLKLTITQEGNKFTVKESSNFRNIDVVFELGVDFAYSAADGTELTGTWTMEGNKLVGKFKRVDNGKELIAVTEISGNELIQTYTYEGVEAKRIFKKE | 0.246 | 0.434 | 0.367 | 0.250 | 0.118
38M 72G 117F (protein, listed as Rattus norvegicus, PEPTIDE (1)...(131) wild-type rat intestinal fatty acid binding protein) AFDGTWKVDRNENYEKFMEKMGINVVKRKLGAHDNLKMTITQEGNKFTVKESSNFRNIDVVFELGVDFAYSGADGTELTGTWTMEGNKLVGKFKRVDNGKELIAVREISGNELIQTFTYEGVEAKRIFKKE | 0.748 | 0.686 | 0.733 | 1.280 | 0.438
11Y, 72A (protein, listed as Rattus norvegicus, PEPTIDE (1)...(131) wild-type rat intestinal fatty acid binding protein) AFDGTWKVDRYENYEKFMEKMGINVVKRKLGAHDNLKLTITQEGNKFTVKESSNFRNIDVVFELGVDFAYSAADGTELTGTWTMEGNKLVGKFKRVDNGKELIAVREISGNELIQTYTYEGVEAKRIFKKE | 0.330 | 0.156 | 0.311 | 0.516 | 0.296
11I, 72A (protein, listed as Rattus norvegicus, PEPTIDE (1)...(131) wild-type rat intestinal fatty acid binding protein) AFDGTWKVDRIENYEKFMEKMGINVVKRKLGAHDNLKLTITQEGNKFTVKESSNFRNIDVVFELGVDFAYSAADGTELTGTWTMEGNKLVGKFKRVDNGKELIAVREISGNELIQTYTYEGVEAKRIFKKE | 0.546 | 0.387 | 0.507 | 0.584 | 1.186
55L, 72A (protein, listed as Rattus norvegicus, PEPTIDE (1)...(131) wild-type rat intestinal fatty acid binding protein) AFDGTWKVDRNENYEKFMEKMGINVVKRKLGAHDNLKLTITQEGNKFTVKESSNLRNIDVVFELGVDFAYSAADGTELTGTWTMEGNKLVGKFKRVDNGKELIAVREISGNELIQTYTYEGVEAKRIFKKE | 0.706 | 0.822 | 0.719 | 0.863 | 0.631
14I 72A (protein, listed as Rattus norvegicus, PEPTIDE (1)...(131) wild-type rat intestinal fatty acid binding protein) AFDGTWKVDRNENIEKFMEKMGINVVKRKLGAHDNLKLTITQEGNKFTVKESSNFRNIDVVFELGVDFAYSAADGTELTGTWTMEGNKLVGKFKRVDNGKELIAVREISGNELIQTYTYEGVEAKRIFKKE | 0.944 | 0.478 | 0.997 | 0.825 | 0.762
